Positions count from the first letter of the chain named.
B1: wild-type LKB1: Flag-tagged wild-type LKB1 serine/threonine kinase immunoprecipitated from HT1080 cells (protein)
chain: MEVVDPQQLGMFTEGELMSVGMDTFIHRIDSTEVIYQPRRKRAKLIGKYLMGDLLGEGSYGKVKEVLDSETLCRRAVKILKKKKLRRIPNGEANVKKEIQLLRRLRHKNVIQLVDVLYNEEKQKMYMVMEYCVCGMQEMLDSVPEKRFPVCQAHGYFCQLIDGLEYLHSQGIVHKDIKPGNLLLTTGGTLKISDLGVAEALHPFAADDTCRTSQGSPAFQPPEIANGLDTFSGFKVDIWSAGVTLYNITTGLYPFEGDNIYKLFENIGKGSYAIPGDCGPPLSDLLKGMLEYEPAKRFSIRQIRQHSWFRKKHPPAEAPVPIPPSPDTKDRWRSMTVVPYLEDLHGADEDEDLFDIEDDIIYTQDFTVPGQVPEEEASHNGQRRGLPKAVCMNGTEAAQLSTKSRAEGRAPNPARKACSASSKIRRLSACKQQ
modifications: left off: small tags and cut ends
notes: Flag-tagged wild-type LKB1 serine/threonine kinase immunoprecipitated from HT1080 cells
B2: STRAD-activated LKB1: wild-type LKB1 co-expressed with its coactivating protein STRAD, immunoprecipitated (protein)
chain 1: B1 chain
chain 2: MSFLVSKPERIRRWVSEKFIVEGLRDLELFGEQPPGDTRRKTNDASSESIASFSKQEVMSSFLPEGGCYELLTVIGKGFEDLMTVNLARYKPTGEYVTVRRINLEACSNEMVTFLQGELHVSKLFNHPNIVPYRATFIADNELWVVTSFMAYGSAKDLICTHFMDGMNELAIAYILQGVLKALDYIHHMGYVHRSVKASHILISVDGKVYLSGLRSNLSMISHGQRQRVVHDFPKYSVKVLPWLSPEVLQQNLQGYDAKSDIYSVGITACELANGHVPFKDMPATQMLLEKLNGTVPCLLDTSTIPAEELTMSPSRSVANSGLSDSLTTSTPRPSNGDSPSHPYHRTFSPHFHHFVEQCLQRNPDARPSASTLLNHSFFKQIKRRASEALPELLRPVTPITNFEGSQSQDHSGIFGLVTNLEELEVDDWEF
modifications: left off: small tags and cut ends
B3: Kinase-inactive LKB1: kinase-dead LKB1 mutant, alone or coexpressed with STRAD (protein)
chain: B1 chain with K78I
modifications: left off: small tags and cut ends
notes: kinase-dead LKB1 mutant, alone or coexpressed with STRAD

Target: T1, MBP-AMPK (Rattus norvegicus, UniProt P54645)
T1 construct: MBP-AMPKa (1-312) bacterial fusion protein
T1 sequence (P54645 13-323): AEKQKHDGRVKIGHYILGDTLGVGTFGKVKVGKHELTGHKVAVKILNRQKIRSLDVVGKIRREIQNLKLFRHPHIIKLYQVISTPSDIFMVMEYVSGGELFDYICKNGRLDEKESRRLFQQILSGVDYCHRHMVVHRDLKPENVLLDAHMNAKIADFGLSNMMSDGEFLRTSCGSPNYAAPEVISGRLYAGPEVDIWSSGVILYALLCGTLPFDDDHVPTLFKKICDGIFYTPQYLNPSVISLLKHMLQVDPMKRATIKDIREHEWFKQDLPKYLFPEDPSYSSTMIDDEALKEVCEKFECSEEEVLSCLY
Experiment: AMPK kinase activity on SAMS peptide after in vitro phosphorylation by LKB1
Assay type: biochemical
Conditions: in vitro phosphorylation of bacterial MBP-AMPK, SAMS peptide substrate
Description: FIG. 2a: Lineup of known LKB1 in vitro phosphorylation sites with sites of phosphorylation in human […] and its yeast homologue SNF1p. AMPKα1 Thr 172 (SEQ ID NO:1); SNF1p S.c. Thr 210 (SEQ ID NO:2); STRAD Thr 329 (SEQ ID NO:3); STRAD Thr 419 (SEQ ID NO:4); LKB1 auto Thr 185 (SEQ ID NO:5). FIG. 2b. HT1080 cells were transfected with wild-type or kinase dead (K78I) LKB1 with or without its coactivating protein STRAD. As indicated, LKB1 immunoprecipitations (IPs) were tested for their ability to transphosphorylate bacterial MBP-AMPKα in an in vitro kinase assay. Parallel in vitro kinase assays were performed using ^32P γ-ATP followed by autoradiography or cold ATP followed by immunoblotting for phospho-Thr172 AMPK and the indicated proteins. Wild-type LKB1 IPs were run in duplicate as shown. MBP-AMPK was also tested alone as indicated. Results are typical of 3 separate experiments. FIG. 2c: LKB1 phosphorylation of MBP-AMPK activates its kinase activity towards a peptide substrate (SAMS). LKB1 immunoprecipitates (as in FIG. 2a) were used to phosphorylate MBP-AMPK in vitro and then MBP-AMPK was removed and tested for its ability to trans-phosphorylate the SAMS peptide in the presence of ^32P γ-ATP. Results were performed in two separate experiments in triplicate. LKB1 alone was incapable of detectably phosphorylating the SAMS peptide, and equivalent levels of LKB1 and MBP-AMPK were used in each reaction (data not shown). Samples without LKB1, without SAMS peptide, or without MBP-AMPK all gave similar levels of background (data not shown).
Kinase Assays and Cellular Analysis: AMPK kinase activity was measured using the SAMS peptide as previously described (7). LKB1 phosphorylation of AMPK was carried out in kinase buffer (50 mM Tris pH 7.5, 10 mM MgCl2, 1 mM DTT, 100 μM ATP) for 20 mins at 30° C. For immunopreciptations of active LKB1 kinase, Flag-tagged LKB1 was co-transfected with an equimolar amount of STRAD expression plasmid into HT1080 cells and immunoprecipitated using M2-agarose (Sigma) 24 h post-transfection in NP40 lysis buffer26. […]

Row | Molecule | induced AMPK kinase activity
1 | B1 | 27 fold
2 | B2 | 50 fold
3 | B3 | unable to activate AMPK

Source: patent publication US20120122991A1, “METHOD FOR TREATING CANCER BY INCREASING AMP-ACTIVATED KINASE ACTIVITY” (Dana-Farber Cancer Institute, Inc., priority 2003, published 2012)
